Assay results reported in paper PMC11764276 (2024).
Numbering of substitutions follows the chain as printed. Like-named read-outs stand apart in the source and are kept apart here.

B1: 2196_CDRL3_RP (antibody, V domains shown)
VH: QMQLVQSGPEVKKPGTSVKVSCKASGFTFMSSAVQWVRQARGQRLEWIGWIVIGSGNTNYAQKFQERVTITRDMSTSTAYMELSSLRSEDTAVYYCAAPYCSSISCNDGFDIWGQGTMVTVSS
VL: not shown
B2: DMAb-2196_CDRL3_P (antibody, V domains shown)
VH: B1 VH
VL: not shown
B3: 2196 WT (recombinant mAb COV2-2196) (antibody, V domains shown)
VH: B1 VH
VL: not shown
B4: 2196_CDRL1_des1 (antibody, V domains shown)
VH: B1 VH
VL: EIVLTQSPGTLSLSPGERATLSCRASQTISNNFVAWYQQKPGQAPRLLIYGASSRATGIPDRFSGSGSGTDFTLTISRLEPEDFAVYYCQHYGSSRGWTFGQGTKVEIK
B5: 2196 HC + 2072 LC (antibody, V domains shown)
VH: B1 VH
VL: not shown
B6: 2196_CDRL3_Q (antibody, V domains shown)
VH: B1 VH
VL: not shown
B7: 2196_CDRL1_des2 (antibody, V domains shown)
VH: B1 VH
VL: B4 VL with N32S, F33Y
B8: 2196_CDRL3_GP (antibody, V domains shown)
VH: B1 VH
VL: not shown

Tests used:
Assay in all cases: SPR
[1] = target: T1, RBD (residues 334–527 of the SARS-CoV-2 spike glycoprotein) (SARS-CoV-2, UniProt P0DTC2 334-527)
[2] = target: T1, RBD (residues 334–527 of the SARS-CoV-2 …); remark: listed apart in the source
[3] = target: T1, RBD (residues 334–527 of the SARS-CoV-2 …); remark: listed apart in the source

Binder	koff [1] [s⁻¹]	Kd [2] [nM]	Kd [3] [nM]
B1	0.12	204	203
B2	0.1		88.5
B3	0.0133		
B4	0.0823		47.6
B5	0.0309		
B6	0.0171		
B7	0.0216		
B8	0.0133		
